The values that follow come from paper doi:10.1101/2022.06.13.496020 (bioRxiv, 2022).

For the assay, the target named is TSH β-subunit (human, UniProt P01222 21-132, N-linked glycan (one)). In words: cryo-EM structure.
TSH β-subunit, sequence (P01222 21-132): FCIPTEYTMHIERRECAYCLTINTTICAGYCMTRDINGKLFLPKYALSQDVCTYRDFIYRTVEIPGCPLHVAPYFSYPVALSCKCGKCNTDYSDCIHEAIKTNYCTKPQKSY

B1: TSH α-subunit (natural protein)
chain: not shown
modifications: N-linked glycans (two, one at N52)
Regarding B1, the binding result is given as “binds”.
